# From patent USRE41461E1, “Purification, composition and specificity of Heparinase I, II, and III from Flavobacterium heparinum” (Massachusetts Institute of Technology, priority 1992, dated 2010)
# B1: Heparin lyase I: heparin lyase I (heparinase, EC 4.2.2.7) purified to homogeneity from Flavobacterium heparinum (protein, UniProt Q05819 22-384, looked up)
# Heparin lyase I: QQKKSGNIPYRVNVQADSAKQKAIIDNKWVAVGINKPYALQYDDKLRFNGKPSYRFELKAEDNSLEGYAAGETKGRTELSYSYATTNDFKKFPPSVYQNAQKLKTVYHYGKGICEQGSSRSYTFSVYIPSSFPDNATTIFAQWHGAPSRTLVATPEGEIKTLSIEEFLALYDRMIFKKNIAHDKVEKKDKDGKITYVAGKPNGWKVEQGGYPTLAFGFSKGYFYIKANSDRQWLTDKADRNNANPENSEVMKPYSSEYKTSTIAYKMPFAQFPKDCWITFDVAIDWTKYGKEANTILKPGKLDVMMTYTKNKKPQKAHIVNQQEILIGRNDDDGYYFKFGIYRVGNSTVPVTYNLSGYSETAR
# Columns and labels:
# [1] = Heparin lyase activity assay (change of absorbance at 232 nm), heparin as substrate; assay type: biochemical, porcine
# Procedure: (§1) The spectrophotometer was adjusted to the optimum temperature of the particular lyase being assayed. […] A measured quantity of lyase was added, bringing the final volume to 400 μl and the cuvette was gently mixed. The microcuvette was then immediately returned to the spectrophotometer and the change of absorbance at 232 nm was measured at 10 seconds intervals over 3 min. […] The specific activity was then calculated by dividing the micromoles of product produced per minute by the milligrams of protein in the cuvette. […] G., and Linhardt, R. J. (1989) Carbohydr. Res. 190, 219-233. Protein concentration was measured by the Bradford assay, Bradford, M. M. (1976) Anal. Biochem. 72, 248-254, based on a bovine serum albumin standard curve. […] The activities of each lyase (I acting on heparin, II acting on both heparin and heparan sulfate, and III acting on heparan sulfate) were then determined at different pH values. The buffer giving optimum activity for each heparin lyase was selected by testing buffers with buffering capacity near the pH optima calculated in the previous experiments. These buffers were: Tris-HCl, sodium phosphate, HEPES, MOPS, TES, and BTP-CHl. […] The heparin lyase assay solutions were made by diluting enzyme in 50 mM sodium phosphate buffer adjusted to the appropriate pH as previously described. Heparin lyase activity was determined in each buffer. Activity was assayed both immediately after addition to each buffer and following incubation for 24 h at 37° C. The salt concentration for optimum activity was investigated. Sodium chloride, potassium chloride, and sodium and potassium acetate were used to differentiate between ionic strength and specific ion affects. […] The temperature was adjusted in a temperature-regulated spectrophotometer and equilibrated for 10 min before the assay was started. Michaelis-Menten constants were determined using the optimized conditions. The final absorbance value for total depolymerization was divided by 20 to find a value that represented 5% reaction completion. The purified lyase preparations were diluted so that 5% of total depolymerization would be reached only at the end of a 3-min assay. The reaction velocities at specific molar concentrations for each lyase and their substrates were used for kinetic analysis using EZ-FIT hyperbolic curve-fitting program of […]. (1988) Anal. Biochem. 174, 437-447). Substrate solutions were prepared from 50 mg/ml heparin and 40 mg/ml for heparan sulfate stock solutions. […] The amount of purified lyase used was sufficient for complete depolymerization of heparin or heparan sulfate substrates within 30 min. The initial rate of depolymerization of each polysaccharide was measured, the reaction was then continued for 24 h, and the final level of polysaccharide depolymerization was assessed by measuring the final absorbance at 232 nm and expressed as percent activity.
# [2] = Heparin lyase activity assay (change of absorbance at 232 nm), heparan sulfate as substrate; assay type: biochemical; conditions: final level of depolymerization, 24 h
# Procedure: as §1
# [3] = Heparin lyase activity: effect of divalent metals and added salt, substrate specificity (each lyase on its substrates); assay type: biochemical
# Procedure: The spectrophotometer was adjusted to the optimum temperature of the particular lyase being assayed. A 700 μl quartz microcuvette containing 400 μg of substrate in 50 mM sodium phosphate buffer (containing 100 mM sodium chloride for heparin lyase I) was thermally equilibrated. A measured quantity of lyase was added, bringing the final volume to 400 μl and the cuvette was gently mixed. The microcuvette was then immediately returned to the spectrophotometer and the change of absorbance at 232 nm was measured at 10 seconds intervals over 3 min. The activity was measured from the change of absorbance/unit time using an extinction coefficient of 3800 M^−1 for products. The specific activity was then calculated by dividing the micromoles of product produced per minute by the milligrams of protein in the cuvette. The molecular weights used for heparin, heparan sulfate, and the chondroitin sulfates were 14,000, 20,000 and 25,000, respectively, Rice, K. G., and Linhardt, R. J. (1989) Carbohydr. Res. 190, 219-233. Protein concentration was measured by the Bradford assay, Bradford, M. M. (1976) Anal. Biochem. 72, 248-254, based on a bovine serum albumin standard curve.
# BTP-HCl buffer (50 mM) was prepared containing either 10 mM calcium chloride, 10 μM or 1 mM copper (II) chloride, 10 μM and 1 mM mercury (II) chloride, and 1 mM zinc (II) chloride. Each solution was adjusted to the optimum pH for the lyase being tested, and the activity of the heparin lyases was measured in the presence and absence of divalent metals.
# The salt concentration for optimum activity was investigated. Sodium chloride, potassium chloride, and sodium and potassium acetate were used to differentiate between ionic strength and specific ion affects. Added salt concentrations varied between 0 and 500 mM and were prepared in 50 mM sodium phosphate buffer after which the pH was adjusted to each enzyme's optimum and the heparin lyase activity was measured.
# Each heparin lyase was added to a solution of complex polysaccharides (1 mg/ml) under optimized assay conditions, and the reaction was monitored at 232 nm for 30 min. The amount of purified lyase used was sufficient for complete depolymerization of heparin or heparan sulfate substrates within 30 min. The initial rate of depolymerization of each polysaccharide was measured, the reaction was then continued for 24 h, and the final level of polysaccharide depolymerization was assessed by measuring the final absorbance at 232 nm and expressed as percent activity.
# [4] = Isoelectric focusing on agarose gel; assay type: physicochemical; conditions: agarose IEF
# Procedure: IEF gel electrophoresis was run on pre-cast agarose gels (85×100 mm). Two electrode wicks were wetted with 1M phosphoric acid (anolyte) and 1M sodium hydroxide (catholyte). Electrophoresis was at 5 watts for 5 min, then at 10 watts for 1 h until the voltage was constant at 1200 V. The gel was immediately fixed in 15% aqueous trichloroacetic acid, blotted and rinsed with water, dried overnight, stained by using Coomassie G-250, and destained.
# [5] = Temperature stability of lyase activity; assay type: physicochemical; conditions: 30° C., protein 650 ng/ml
# Procedure: Lyase assay stock solutions were prepared in the appropriate buffer and placed in water baths at the following temperatures: heparin lyase I at 30° C., heparin lyase II at 35° C., and heparin lyase III at both 35° and 40° C. […]
# [6] = Activity remaining after incubation in buffers for 24 h at 37° C.; assay type: physicochemical; conditions: each of six buffers
# Procedure: The buffer giving optimum activity for each heparin lyase was selected by testing buffers with buffering capacity near the pH optima calculated in the previous experiments. These buffers were: Tris-HCl, sodium phosphate, HEPES, MOPS, TES, and BTP-CHl. Each buffer was prepared at 50 mM, and its pH was adjusted with hydrochloric acid or sodium hydroxide to 6.9 for heparin lyase II acting on heparin, 7.15 for heparin lyase I, 7.3 for heparin lyase II acting on heparan sulfate, and 7.6 for heparin lyase III. The heparin lyase assay solutions were made by diluting enzyme in 50 mM sodium phosphate buffer adjusted to the appropriate pH as previously described. Heparin lyase activity was determined in each buffer. Activity was assayed both immediately after addition to each buffer and following incubation for 24 h at 37° C.
# [7] = Stability toward storage, freeze thawing and lyophilization; assay type: physicochemical; conditions: for activity retained: absence of excipient
# Procedure: […] […] These lyase solutions were then divided into 3 equal aliquots, and one of each was subjected to either freeze thawing, lyophilization, or retained as a control in an ice bath. The activities of heparin lyases I-III were determined in the presence and absence of excipients after: 1) brief storage at 4° C.; 2) freezing at −70° C. and thawing; and 3) −70° C. freezing, lyophilization, and reconstituting with an equal volume of cold water.
# [8] = cited from earlier work
molecule,measurement,setting,value
B1,added salt concentration (ionic strength) for optimum activity,[1]; 0-500 mM salt in 50 mM sodium phosphate buffer,100 mM
same,Unit/mg (specific activity),"[1]; final GPC-HPLC purification step, acting on heparin",130 Unit/mg
same,average number of sites acted at in the heparin polymer,"[1]; final level of depolymerization, 24 h",7 sites
same,"initial activity in six buffers (Tris-HCl, sodium phosphate, HEPES, MOPS, TES, BTP-HCl)","[1]; heparin, 50 mM buffer at optimum pH","reduced activity in MOPS, TES, and HEPES"
same,temperature for maximum activity,"[1]; heparin, 50 mM sodium phosphate at optimum pH, 15-55° C.",35 °C
same,Km,"[1]; heparin, I: 30° C., pH 7.15, 100 mM sodium chloride, II: 35° C., pH 7.3, value ± standard error, read-out: Km(app)",17.8 ± 1.5 µM
same,Vmax,"[1]; heparin, optimized conditions, value ± standard error",219 ± 3.48 μmol/min mg protein
same,pH optimum for activity,[1]; on heparin,7.15
same,specific activity,"[1]; purified lyase, toward heparin",130 units/mg
same,average number of sites acted at in the heparan sulfate polymer,[2],5 sites
same,substrates acted on,[3],act on both heparin and heparan sulfate
same,effect of mercury on activity,[3]; 10 μM mercury (II) chloride,markedly reduced
same,effect of copper on activity,[3]; 1 mM copper (II) chloride,markedly reduced
same,effect of mercury on activity,[3]; 1 mM mercury (II) chloride,markedly reduced
same,effect of zinc on activity,[3]; 1 mM zinc (II) chloride,slightly reduced
same,effect of calcium on activity (increase),"[3]; 10 mM calcium chloride, 50 mM BTP-HCl",30%
same,effect of added salt on activity,"[3]; increasing salt concentration, 0-500 mM",increased activity
same,pI (isoelectric point),[4],9.1-9.2
same,time in which 80% of activity was lost,[5],5 h
same,"activity after incubation, % of initial value",[6],1-20%
same,activity retained,[7]; after a single freeze-thawing,45%
same,activity retained,[7]; after freeze-drying,25%
same,activity retained,[7]; stored at 4° C.,50%
same,retention of activity,[7]; addition of 2.0 mg/ml BSA,greater than 85%
same,retention of activity,[7]; addition of 5% lactose,40-80%
same,pH optimum (reported),"[8]; Yang et al. (1985), Linker and co-workers, assay times up to 6 h",6.5
same,Vmax (reported),[8]; literature,19.7 μmol/min/mg protein
